This is an account of results in the supplement of paper PMC9732359.

± gives the uncertainty stated by the source.

The data set can be described thus: protein stability index of a GFP-peptide fusion (yeast GPS) (PSI 1-4); higher = more stable; sorted into four equal gates, so the index is relative within each strain. The method, boiled down: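 Tiled 17-residue peptides from yeast proteins were fused downstream of GFP on a plasmid that also expresses Cherry, and the pooled library was carried in yeast. Mid-log cultures grown in leucine-free medium were sorted into four equal gates by GFP/Cherry fluorescence ratio. Plasmids from each gate were PCR-amplified and Illumina-sequenced, and reads were assigned to strains by barcodes. Each peptide's protein stability index is the sum, over gates, of the gate's read frequency multiplied by its gate number.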

As for QKRLEAGALNLASPEVK [DIS3], the protein stability index runs as follows: (pdr5∆) 2.64 ± 0.18; (ubr1∆) 2.82 ± 0.081.

Turning to QVNIRFLLHNSEIIDTN [SRB8], the protein stability index runs as follows: (doa10∆) 2.17 ± 0.059; (pdr5∆) 2.71 ± 0.057; (san1∆) 2.79 ± 0.055; (ubr1∆) 2.7 ± 0.04.

As to VISMFVLPIFTTVFFSR [YML031W/NDC1], the protein stability index was 1.38 ± 0.046 (doa10∆), 1.16 ± 0.065 (pdr5∆), 1.17 ± 0.11 (san1∆) and 1.16 ± 0.057 (ubr1∆).

On to SKEFSAYVSGLFEIYRD [YJR042W/NUP85], for which the protein stability index is, setting by setting: (doa10∆) 1.76 ± 0.093; (pdr5∆) 2.75 ± 0.15; (san1∆) 2.7 ± 0.19; (ubr1∆) 2.31 ± 0.08.

Turning to LPPNWKYESATASALVN [RPS13], the protein stability index runs as follows: (doa10∆) 2.21 ± 0.081; (pdr5∆) 2.59 ± 0.095; (san1∆) 2.69 ± 0.064; (ubr1∆) 2.12 ± 0.049.

As to VNARDIPPLNKSLAMEH [CSN12], the protein stability index by setting is: (doa10∆) 2.77 ± 0.23; (pdr5∆) 2.67 ± 0.17; (san1∆) 2.61 ± 0.19.

Regarding WLEQFLSCVKNDTISED [NUT1], the protein stability index came out at 1.73 ± 0.046 (doa10∆), 1.51 ± 0.04 (pdr5∆), 1.36 ± 0.059 (san1∆) and 1.54 ± 0.035 (ubr1∆).

As for QLSNGIVVATEHNPSAH [COR1], the protein stability index worked out at 2.88 ± 0.075 (doa10∆), 3.08 ± 0.1 (pdr5∆), 3.2 ± 0.059 (san1∆) and 2.52 ± 0.074 (ubr1∆).

SLNYKFTTNKSKDVSRL [SRP21]: the protein stability index reads like this: (doa10∆) 3.13 ± 0.12; (pdr5∆) 3.04 ± 0.088; (san1∆) 3.08 ± 0.081; (ubr1∆) 3.14 ± 0.072.

Regarding LKQDLKKISSFKSLIDE [YGL172W/NUP49], the protein stability index reads like this: (doa10∆) 2.81 ± 0.052; (pdr5∆) 2.79 ± 0.05; (san1∆) 3.08 ± 0.04; (ubr1∆) 3.06 ± 0.034.

Sequence GRAGVPMEVMGLMLGEF [RPN11] yielded a protein stability index (doa10∆) of 1.25 ± 0.17, a protein stability index (pdr5∆) of 2.12 ± 0.26 and a protein stability index (san1∆) of 1.69 ± 0.18.

For KELFGEDEDEDLFGDSN [SSN2], the protein stability index stood at 3.32 ± 0.2 (doa10∆), 3.54 ± 0.2 (pdr5∆), 3.21 ± 0.27 (san1∆) and 3.67 ± 0.2 (ubr1∆).

TKDIFPLQNIHVRKVKL [RPS1A]: the protein stability index is, setting by setting: (doa10∆) 2.4 ± 0.084; (pdr5∆) 2.81 ± 0.097; (san1∆) 2.6 ± 0.072; (ubr1∆) 2.84 ± 0.09.

On to SRRTVNKEMETQRIMTN [YLR018C/POM34], for which the protein stability index is 3.51 ± 0.12 (doa10∆), 3.15 ± 0.29 (pdr5∆), 3.22 ± 0.26 (san1∆) and 3.1 ± 0.2 (ubr1∆).

On to EHIKEGSEIAISSLGYR [SWI3], for which the protein stability index by setting is: (doa10∆) 2.78 ± 0.055; (pdr5∆) 3.02 ± 0.063; (san1∆) 2.99 ± 0.05; (ubr1∆) 2.95 ± 0.052.

As for MIDLGFEDQVTNILTKV [PRP28], the protein stability index by setting is: (pdr5∆) 3.67 ± 0.25; (san1∆) 2.88 ± 0.22; (ubr1∆) 3.16 ± 0.19.

Regarding LLKKKDDPSKVRLLCRS [YLR335W/NUP2], the protein stability index runs as follows: (doa10∆) 2.12 ± 0.047; (pdr5∆) 1.85 ± 0.063; (san1∆) 1.98 ± 0.089; (ubr1∆) 2.61 ± 0.15.

Turning to TFLLNNKNIDIGLLNKS [RPN2], the protein stability index runs as follows: (doa10∆) 3.38 ± 0.21; (pdr5∆) 3.11 ± 0.27; (ubr1∆) 2.61 ± 0.11.

For the sequence KESDLLEETRTTIGDTT [BRN1], the protein stability index runs as follows: (doa10∆) 2.47 ± 0.051; (pdr5∆) 3.18 ± 0.064; (san1∆) 2.99 ± 0.053; (ubr1∆) 3.19 ± 0.055.

With EELFTQLFHSMSIVFGD [UBP6], the protein stability index by setting is: (doa10∆) 3.17 ± 0.087; (pdr5∆) 3.35 ± 0.087; (san1∆) 3.38 ± 0.05; (ubr1∆) 2.98 ± 0.089.

With DNLFGETESSVSNNEAN [SWI3], the protein stability index (doa10∆) was determined as 3.55 ± 0.16, the protein stability index (pdr5∆) stood at 2.92 ± 0.089 and the protein stability index (ubr1∆) is 2.89 ± 0.083.

With QTFNFDSFENYFNQLKP [RPN12], the protein stability index is 2.76 ± 0.047 (doa10∆), 2.9 ± 0.064 (pdr5∆), 3.05 ± 0.052 (san1∆) and 3 ± 0.046 (ubr1∆).

Consider SNAAGADDAISMHLLKD [SRB8], for which the protein stability index came to 3.17 ± 0.1 (doa10∆), 2.49 ± 0.065 (pdr5∆), 3.07 ± 0.099 (san1∆) and 2.76 ± 0.055 (ubr1∆).

Turning to PANHLQSDFCLSWCPSR [YGL100W/SEH1], the protein stability index runs as follows: (doa10∆) 1.8 ± 0.18; (pdr5∆) 2.05 ± 0.12; (san1∆) 2.43 ± 0.16; (ubr1∆) 2.4 ± 0.06.
